Data reported in paper PMC8483785, “The plant nuclear lamina proteins NMCP1 and NMCP2 form a filamentous network with lateral filament associations” (Journal of Experimental Botany, 2021).

Experiments:
[1] = target: His-tagged DcNMCP1 (Daucus carota nuclear matrix constituent protein 1 with an N-terminal 6x His tag) (Daucus carota); experiment: transmission electron microscopy after low-angle rotary metal shadowing; purified protein in urea dialysed against H2O (30-120 min) to induce refolding; sprayed in 40% glycerol on mica, platinum-carbon shadowing; monomers to coiled-coil dimer
[2] = target: the molecule itself; experiment: as above

Row | stoichiometry N [1] | Molecule | stoichiometry N [2]
1 | 2 | His-tagged DcNMCP1 (Daucus carota nuclear matrix constituent protein 1 with an N-terminal 6x His tag) (from UniProt A0A166B1A6 1-1119) (natural protein) | 
2 |  | His-tagged DcNMCP2 (Daucus carota nuclear matrix constituent protein 2 with an N-terminal 6x His tag) (natural protein, UniProt D2YZU8 1-927, looked up, Nuclear matrix constituent protein 2 (NMCP2) of Daucus carota; longest ORF of cDNA clone pD2m, amplified from the start codon to the stop codon; the PCR product included a 2808 bp ORF; GenBank AB514509; also called 6x His-tagged DcNMCP2; product of pDC2mN; not shown: His6, N-terminal, kept) MASPRLTVIQSEKTTVTSSRVSRSSMSDDDIWKRLQEAGFDEDSIKRRDKASLIAYITKLEAEIYDHQYQMGLLIMERKEWGSKFERVEAALNSAELMRKHDKNLYLKDLAEAKKREENLKKAIEIERECLANIEKTLHELRAEYAETKVMADSKLVEARSMIEDALKKLSEADAKKHAAESLEAEASRYHSAAERKLHEVEAREDDLRRRATSFKTECDTKEEEILHERRLLNERQKALQQSQQRLVDGQDLLNKRESHIFERTQELNRKEKELEASKLKQEEELQALVEQQANLETKASSLSLREEVITKSELEVKKREEELCVLQEKLEKKESERIQQLLANYEASLSMKKSEFEAELEVKRKSVHDDIENKRRDWELREVDLHHREELILEKEHELEMQSRAVVDKERDLAGRFSLLEEKENRLHAVEKEIESKEALLQKEKEEIISSKLDIQRSLDALEDEKKQLHHAEEKMEAMKSETNELCVLESKLKEEIETIRAQKQELETEADEMKELKLKFEIEWQSIDEKRKELQKEAECINEQRESLELTLKDERNSLKLEKDAMRDEYMRNNESLSRDREDFMKKMEHERSEWFSKIQKERSDYLLAIEVQSKDLEDRLAKRREEIESYLAERERAFEEEKKKELMRMDTLRETLARETEQVNAELNRLDTERREINLDRERRDREWAELNTLIEELKVQRQKLEKQRELMRADKEEILVQIEHLKQLEDLKVVPDRIALTDIQQSDLQPSKRVSARRSLKRQSGLDSGCRAEDNGNASSGNGSVILSPPLSSPFSWLKRCASSLLEQKVSNKKMRHSEEIITPSTIPARLNAPDDEHAVISANQQTPVHAKETTVYIDKIITIREVTSFNDAIVDGNNQNLEEALSQRAEEKLEDDNNIESEKLEKNGEVDPKIMQASLTEQ | 2
